Each block holds one binder with its values, some of them ahead of it.
What was measured:
human CTLA-4.ECD-6×His = target: T1, human CTLA-4.ECD-6×His (human, UniProt P16410 36-161); test: ELISA, coated human CTLA-4.ECD-6×His
T1 construct: extracellular domain; also called WBP316.hCTLA-4.ECD-6×His; hCTLA4-His (WT)
T1 sequence: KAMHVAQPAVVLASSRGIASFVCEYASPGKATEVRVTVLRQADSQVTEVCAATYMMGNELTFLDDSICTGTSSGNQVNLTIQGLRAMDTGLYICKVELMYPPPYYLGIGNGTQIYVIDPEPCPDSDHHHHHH
Description: ELISA was used to test binding of anti-human CTLA-4 antibodies to human, murine and cynomolgus monkey CTLA-4 protein. A 96-well plate was coated with human CTLA-4.ECD-6×His (1.0 μg/mL), cynomoguls monkey CTLA-4.ECD-6×His (0.5 μg/mL) or mouse CTLA-4.ECD-6×His (0.5 μg/mL) at 4° C. for 16-20 hours. After 1 hour blocking with 2% BSA in DBPS, testing antibodies, as well as positive and negative control antibodies were added to the plates and incubated at room temperature for 1 hour. The binding of the antibodies to the plates were detected by HRP-conjugated goat anti-human IgG antibody (1:5000 dilution) with 1 hour incubation. The color was developed by dispensing 100 μL of TMB substrate for 8 mins, and then stopped by 100 μL of 2N HCl.

HER3.ECD = HER3.ECD (Homo sapiens (Human), UniProt P21860 20-643); test: specificity ELISA on coated antigens, OD
Description: (§1) In the ELISA assay, the testing antibodies, isotype control antibodies were tested binding to 10 different target antigens including Factor VIII, FGFR-ECD, PD-1, CTLA-4.ECD, VEGF, HER3.ECD, OX40.ECD, 4-1BB.ECD, CD22.ECD, CD3e.ECD. A 96-well plate was coated with the individual antigens (2 μg/mL) at 4° C. overnight. After 1 hour blocking with 2% BSA in PBS, wash plate 3 times with 300 μL PBST. Testing antibodies, as well as isotype control antibodies were diluted to 10 μg/mL in PBS containing 2% BSA, then were added to the plate and incubated at room temperature for 2 hours. After 3 times washing with 300 μL PBST, HRP-conjugated goat anti-human IgG antibody (1:5000 diluted in 2% BSA) was added to the plate and incubated at room temperature for 1 hours. Finally, the plates were washed six times with 300 μL PBST. The color was developed by dispensing 100 μL of TMB substrate for 12 min, and then stopped by 100 μL of 2M HCl.

PD-1 = PD-1 (Homo sapiens (Human), UniProt Q15116 25-170); test: specificity ELISA on coated antigens, OD
Description: as §1

4-1BB.ECD = 4-1BB.ECD (Homo sapiens (Human), UniProt Q07011 24-186); test: specificity ELISA on coated antigens, OD
Description: as §1

CD3e.ECD = CD3e.ECD (Homo sapiens (Human), UniProt P07766 23-126); test: specificity ELISA on coated antigens, OD
Description: as §1

human CTLA-4.ECD.hFc = target: T2, human CTLA-4.ECD.hFc (human, UniProt P16410 36-161); test: competition ELISA, coated human CTLA-4.ECD.hFc, competitor CD86-6×His
T2 construct: extracellular domain; also called hCTLA-4.ECD.hFc; not shown: human Fc tag (hFc)
T2 sequence (looked up): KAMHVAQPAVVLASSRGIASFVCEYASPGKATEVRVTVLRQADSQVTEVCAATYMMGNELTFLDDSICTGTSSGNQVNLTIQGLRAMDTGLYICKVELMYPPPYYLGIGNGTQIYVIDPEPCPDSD
Description: Plates were coated with human CTLA-4.ECD.hFc (0.5 μg/mL) at 4° C. for 16-20 hours. […] After washing three times with PBS containing 0.05% Tween 20, biotinylated anti-His tag antibody was 1:2000 diluted and added. The plates were incubated at room temperature for 1 hour. The bound ligands were detected by HRP conjugated streptavidin (1:20000). The color was developed by dispensing 100 μL of TMB substrate for 8 mins, and then stopped by 100 μL of 2N HCl.

hCTLA-4.ECD.hFc-Biotin = target: T3, hCTLA-4.ECD.hFc-Biotin (human, UniProt P16410 36-161, biotinylated (sites not given)); test: FACS competition, hCTLA-4.ECD.hFc-Biotin on CD86-expressing CHO cells
T3 construct: extracellular domain; also called Biotinylated CTLA-4.ECD.hFc; biotinylated human CTLA4.ECD.hFc; not shown: human Fc tag (hFc)
T3 sequence (looked up): T2 sequence (looked up)
Description: PE conjugated Streptavidin was purchased from eBioscience (Catalog number 12-4317).
Then the mixtures of antibody and CTLA-4 were added to the cells and incubated for 1 hour at 4° C. The cells were washed two times with 200 μL FACS buffer (DPBS containing 1% BSA). Streptavidin PE 1 to 333 diluted in FACS buffer was added to the cells and incubated at 4° C. for 1 hour. Additional washing steps were performed two times with 200 μL FACS buffer followed by centrifugation at 1500 rpm for 4 minutes at 4° C. Finally, the cells were resuspended in 100 μL FACS buffer and fluorescence values were measured by flow cytometry and analyzed by FlowJo.

[1] = target: T4, full length human CTLA-4 on cells (human, UniProt P16410 36-223); test: flow cytometry affinity on cells expressing human CTLA-4
T4 construct: whole, on cells; also called CTLA-4-expressing cell line
T4 sequence (looked up): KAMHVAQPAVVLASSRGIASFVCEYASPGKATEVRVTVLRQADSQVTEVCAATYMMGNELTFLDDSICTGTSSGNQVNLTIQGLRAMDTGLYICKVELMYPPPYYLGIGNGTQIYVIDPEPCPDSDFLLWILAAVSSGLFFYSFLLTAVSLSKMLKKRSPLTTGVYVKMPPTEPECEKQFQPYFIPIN
Description: Briefly, HEK293 cells expressing human CTLA-4 were transferred in to 96-well U-bottom plates (BD) at a density of 5×10⁴ cells/well. Testing antibodies were 1:2-fold serially diluted in PBS with 1% BSA and incubated with cells at 4° C. for 1 hour. After centrifugation at 1500 rpm for 4 min, the supernatant was discarded. The secondary antibody, FITC conjugated goat anti-human IgG Fc (3.2 FITC per IgG, Jackson Immunoresearch Lab), was added to re-suspend cells to final concentration 14 μg/ml, and incubated at 4° C. in the dark for 30 min. The cells were then washed once and re-suspended in PBS with 1% BSA, and analyzed by flow cytometery (BD). Fluorescence intensity was converted to bound molecules/cell based on the quantitative beads (Quantum™ MESF Kits, Bangs Laboratories). KD was calculated using Graphpad Prism5.
The affinity of humanized antibodies binding to cell surface CTLA-4 was measured by flow cytometry method, modified from Benedict's method [Benedict 1997 JIM].

Chain of PD-1 (Q15116 25-170 limits assumed): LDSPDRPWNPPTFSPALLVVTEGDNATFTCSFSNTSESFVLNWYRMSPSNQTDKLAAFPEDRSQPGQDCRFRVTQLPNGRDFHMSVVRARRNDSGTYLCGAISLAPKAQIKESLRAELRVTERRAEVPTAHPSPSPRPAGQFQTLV
Chain of CD3e.ECD (P07766 23-126 limits assumed): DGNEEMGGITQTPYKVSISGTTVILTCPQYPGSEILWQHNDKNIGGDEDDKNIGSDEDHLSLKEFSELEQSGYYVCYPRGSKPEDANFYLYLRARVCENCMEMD
Chain of HER3.ECD (P21860 20-643 limits assumed): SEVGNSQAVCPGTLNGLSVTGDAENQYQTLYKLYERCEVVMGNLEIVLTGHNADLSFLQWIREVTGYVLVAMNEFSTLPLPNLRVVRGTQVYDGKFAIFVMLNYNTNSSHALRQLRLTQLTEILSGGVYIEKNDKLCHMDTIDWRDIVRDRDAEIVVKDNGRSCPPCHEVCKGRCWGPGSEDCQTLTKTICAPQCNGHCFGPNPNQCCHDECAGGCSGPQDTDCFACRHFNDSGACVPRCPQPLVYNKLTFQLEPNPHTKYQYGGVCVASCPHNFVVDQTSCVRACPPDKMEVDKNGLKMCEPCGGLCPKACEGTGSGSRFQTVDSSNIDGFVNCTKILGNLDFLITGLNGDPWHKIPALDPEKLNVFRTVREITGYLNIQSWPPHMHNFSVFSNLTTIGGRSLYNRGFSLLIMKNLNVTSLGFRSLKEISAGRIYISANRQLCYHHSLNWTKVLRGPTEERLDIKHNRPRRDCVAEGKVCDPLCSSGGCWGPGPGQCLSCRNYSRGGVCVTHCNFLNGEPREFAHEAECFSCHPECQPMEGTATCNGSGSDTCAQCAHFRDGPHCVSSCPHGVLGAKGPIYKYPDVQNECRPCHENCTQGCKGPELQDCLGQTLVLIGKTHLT

EC50 (human CTLA-4.ECD-6×His): 0.04 nM
binding result (HER3.ECD): no binding (tested: 10 ug/mL)
binding result (PD-1): no binding (tested: 10 ug/mL)
binding result (4-1BB.ECD): no binding (tested: 10 ug/mL)
binding result (CD3e.ECD): no binding (tested: 10 ug/mL)
IC50 (human CTLA-4.ECD.hFc): 0.5 nM
IC50 (hCTLA-4.ECD.hFc-Biotin): 0.28 nM
Kd [1]: 0.35 nM
B1: W3162_1.154.8-z35-uAb.IgG1K (antibody, V domains shown)
VH: QVQLVQSGAEVKKPGSSVKVSCKASGYTFTNYFMNWVRQAPGQGLEWMGRVDPEQGRADYAEKFKKRVTITADKSTSTAYMELSSLRSEDTAVYYCARRAMDNYGFAYWGQGTLVTVSS
VL: EIVLTQSPDFQSVTPKEKVTITCSANSALSYMYWYQQKPDQSPKLWVHGTSNLASGVPSRFSGSGSGTDFTLTINSLEAEDAATYYCHHWSNTQWTFGGGTKVEIK
notes: Humanized; label says IgG1K

EC50 (human CTLA-4.ECD-6×His): 0.03 nM
binding result (HER3.ECD): no binding (tested: 10 ug/mL)
binding result (PD-1): no binding (tested: 10 ug/mL)
binding result (4-1BB.ECD): no binding (tested: 10 ug/mL)
binding result (CD3e.ECD): no binding (tested: 10 ug/mL)
IC50 (human CTLA-4.ECD.hFc): 0.71 nM
IC50 (hCTLA-4.ECD.hFc-Biotin): 5.15 nM
Kd [1]: 5 nM
B2: W3162-1.146.19-z12-uAb.IgG1K (antibody, V domains shown)
VH: QVQLQESGPGLVKPSETLSLTCSVTYHTITSGYDWTWIRKPPGKGMEWIGYISYSGNTNYNPSLKSRVTISRDTSKNQFFLKLSSVTAADTAVYYCASMMVPHYYVMDAWGQGTLVTVSS
VL: DIVMTQTPLSLSVTPGQPASISCRSSQSLLNSDGNTYLYWYLQKPGQSPQLLIYLVSKLGSGVPNRFSGSGSGTDFTLKISRVEAEDVGVYYCVQGTHDPWTFGGGTKVEIK
notes: Humanized; label says IgG1K
